Test results from paper PMC9610768 (2022).

Target: actin filament (skeletal muscle alpha-actin) (Oryctolagus cuniculus, UniProt P68135)
Assay: co-sedimentation

| Kd | Binder |
| --- | --- |
| 3400 nM | GFP-Rng2CHD CHD (protein, GFP fused to Rng2CHD N-terminus, phalloidin-stabilized actin filaments) MDVNVGLSRLQSQAGAPVGTKGSNTRLAAKQRETLQAYDYLCRVDEAKKWIEECLGTDLGPTSTFEQSLRNGVVLALLVQKFQPDKLIKIFYSNELQFRHSDNINKFLDFIHGIGLPEIFHFELTDIYEGKNLPKVIYCIHALSYFLSMQDLAPPLIKSDENLSFTDEDVSIIVRRLRQSNVILPNFKA |
| 920 nM | Rng2CHD CHD (protein, phalloidin-stabilized actin filaments) MDVNVGLSRLQSQAGAPVGTKGSNTRLAAKQRETLQAYDYLCRVDEAKKWIEECLGTDLGPTSTFEQSLRNGVVLALLVQKFQPDKLIKIFYSNELQFRHSDNINKFLDFIHGIGLPEIFHFELTDIYEGKNLPKVIYCIHALSYFLSMQDLAPPLIKSDENLSFTDEDVSIIVRRLRQSNVILPNFKA |
